Measurements reported in patent US20260055369A1, “METHOD FOR GENERATING CELLS OF THE T CELL LINEAGE WITH ENGINEERING BROADLY REACTIVE HUMAN NOTCH LIGAND” (H. Lee Moffitt Cancer Center and Research Institute, Inc., priority 2022, published 2026).
Residue numbers refer to the chain shown, from its start. Read-outs that look alike come from different tables or passages of the source.

Tests used:
[1] = tested on: Notch1; experiment: Notch inhibition assay with soluble antagonists and WT DLL4 coated plates (CHO-K1 N1-Gal4); format: cell-based
Protocol: For CHO-K1 N1-Gal4 reporter cells, on day one, biotinylated WT DLL4 was pre-coated in 96-well plates at 50 nM following the same protocol described above. Next, CHO-K1 N1-Gal4 cells were detached with trypsin-EDTA, washed, and diluted at 200,000 cells/mL in α-MEM media. Ten-fold serial dilutions of non-biotinylated DLL4 ligands (N-EGF5) were prepared in DPBS starting at 600 nM. Next, soluble inhibitors were mixed in ratio 1:1 with CHO-K1 N1-Gal4 200,000 cells/mL stocks for 15 min at room temperature to pre-block Notch receptors. Two hundred microliters of inhibition reactions containing 20,000 reporter cells were added to WT DLL4-coated wells, and plates incubated for 24 hours at 37° C. and 5% CO2. When DAPT (gamma-secretase inhibitor, Sigma) and BB-94 (ADAM metalloprotease inhibitor, Sigma) were used, stock solutions were prepared at 100 μM in 8% DMSO. Appropriate DMSO controls were included to test Notch activation and cell viability. Final DMSO concentration in the experiment was kept below 1%. For comparisons of Delta^MAX with DAPT and BB-94, soluble inhibitors were serially diluted in DPBS using 9-folds, incubated with CHO-K1 N1-Gal4 reporter cells, and added to wells as described above. On day two, assay plates were washed with 200 μL of DPBS, CHO-K1 N1-Gal4 cells detached with trypsin-EDTA, quenched with 200 μL of α-MEM media, and Notch activation measured by flow cytometry (BD Accuri C6 Plus). The data represent the mean fluorescent intensity as percentage of Notch activation, relative to Notch activation in the absence of inhibitors±s.d. of three independent biological replicates.

[2] = tested on: hPSC-derived neural progenitors; experiment: Differentiation of hPSC-derived neural progenitors into neurons (qPCR markers); format: cell-based, human; details: for neural progenitor marker SOX2 expression / neuronal markers (MAPT, SNAP25, DCX, VGLUT2, TBR1) expression: soluble protein 10, 100, 1,000 nM, day 8-14, qPCR
Protocol: Neural differentiation of hPSCs was performed in two separate phases over 14 days. In the first phase, to differentiate hPSCs into neural progenitors for 7 days, a modification of a previously-reported method was used. However, in this study, differentiation conducted in Chemically Defined Media 2 (CDM2) media, whose composition has been described previously: 50% IMDM+GlutaMAX (Thermo Fisher)+50% F12+GlutaMAX (Thermo Fisher)+1 mg/mL polyvinyl alcohol (Sigma)+1% v/v chemically defined lipid concentrate (Thermo Fisher)+450 μM 1-thioglycerol (Sigma)+0.7 μg/mL recombinant human insulin (Sigma)+15 μg/mL human transferrin (Sigma)+1% v/v penicillin/streptomycin (Thermo Fisher). To create CDM2, polyvinyl alcohol was brought into suspension by gentle warming and magnetic stirring, and the media was sterilely filtered (through a 0.22 μm filter) prior to use. Throughout the first 7 days, differentiation media was changed every 24 hours. The second phase was to differentiate hPSC-derived neural progenitors into neurons for 7 days, from the day 8-14 interval. Neuronal differentiation media was modified from a previously-reported method^9. From day 8-14, cells were differentiated in BDNF (20 ng/ml, PeproTech), GDNF (20 ng/ml, PeproTech), Forskolin (10 μM, Tocris), 2-Phospho-L-ascorbic acid (0.2 mM, Sigma-Aldrich), with the basal media compositions varying depending on the day of differentiation. On day 8, 25% Neurobasal media+75% CDM2 media was used; on day 9, 50% Neurobasal media+50% CDM2 media was used; on day 10, 75% Neurobasal media+25% CDM2 media was used; on days 11-14, 100% Neurobasal media was used. The composition of Neurobasal media was: Neurobasal basal media (Thermo Fisher)+1% v/v N2 (Thermo Fisher)+2% v/v B27 (Thermo Fisher)+1% v/v penicillin/streptomycin (Thermo Fisher), which was filtered through a sterilizing 0.22 μM filter before use. In summary, starting on day 8 of differentiation, Neurobasal media was added in an increasing ¼th increment on a daily basis. However, to emphasize, throughout the entire day 8-14 interval, cells were exposed to the same concentration of neuronal differentiation signals (BDNF, GDNF, Forskolin and 2-Phospho-L-ascorbic acid), although different basal medias were used on different days.
To test the effect of Notch signaling on neuronal differentiation, starting on day 8, hPSC-derived neural progenitors were treated with the aforementioned neuronal differentiation signals in the presence or absence of soluble Delta^MAX (0-1,000 nM), soluble wild-type DLL4 (0-1,000 nM), or DAPT (10,000 nM, Tocris).
After differentiation of hPSCs into neurons as described above, gene expression was analyzed using RNA extraction, reverse transcription, and quantitative PCR (qPCR) as previously described. First, cells were lysed with RNeasy Lysis Buffer (Qiagen) and stored at −20° C. Cell lysates were then thawed, and RNA was extracted using the RNeasy Mini Plus Kit (Qiagen) as per the manufacturer's instructions and dissolved in H2O. Next, 300 ng of RNA was reverse transcribed into complementary DNA (cDNA) using the High-Capacity cDNA Reverse Transcription Kit (Applied Biosystems) according to the manufacturer's protocol. Total cDNA was diluted 1:20 in H2O and qPCR was performed with the SensiFAST SYBR Lo-ROX Kit (Bioline) using 10 μL qPCR reactions per well in a 384-well plate. Each individual reaction contained 5.0 μL 2× SensiFAST SYBR qPCR Master Mix+4.6 μL cDNA+0.4 μL of 10 μM primer stock (5 μM forward+5 μM reverse primers). […]

[3] = tested on: CD8+ T cells; experiment: Co-culture assay for T cell proliferation (K32 aAPCs expressing ligand); format: cell-based, human; details: along the OKT3 concentrations, 96 h, vs K32 lacking DLL4 ligands (mock)
Protocol: Functional assays for human CD8^+ T cells were performed in co-culture with K562 cells expressing human CD32 (K32 cells) generated as described before7. Briefly, cells were γ-irradiated (100Gy) and washed twice with PBS before being loaded with OKT3 (0.0125-0.5 μg/mL, BioXcell) antibody at RT for 10 min. Human CD8^+ T cells were negatively isolated from PBMC and labeled with 5 μM of Cell Trace Violet (Invitrogen) according to manufacturer's specifications. Next, CD8^+ T cells were co-cultured with K32 cells at ratio 1:10 (T cell:K32). The frequency of proliferating T cells was determined after 96 hours by flow cytometry using a CytoFLEX II (Beckman Coulter). Zombie Green (Biolegend) was used for life/dead cell staining to discard dead cells from the analysis. A set of samples were additionally incubated with Golgi stop (BD) at 0.5 μL/well for 5 hours and washed with PBS for detection of intracellular IFNγ using anti-hIFNγ APC antibody (Biolegend). The frequency of IFNγ positive cells was analyzed by flow cytometry (CytoFLEX II, Beckman Coulter). Dead cells were excluded from the analysis by staining with Zombie green (Biolegend). The data represent the mean percentage of proliferating T cells or IFNγ^+ T cells±s.e.m. of four independent biological replicates.

Sequence of Notch1 (P46531 19-1664 limits assumed): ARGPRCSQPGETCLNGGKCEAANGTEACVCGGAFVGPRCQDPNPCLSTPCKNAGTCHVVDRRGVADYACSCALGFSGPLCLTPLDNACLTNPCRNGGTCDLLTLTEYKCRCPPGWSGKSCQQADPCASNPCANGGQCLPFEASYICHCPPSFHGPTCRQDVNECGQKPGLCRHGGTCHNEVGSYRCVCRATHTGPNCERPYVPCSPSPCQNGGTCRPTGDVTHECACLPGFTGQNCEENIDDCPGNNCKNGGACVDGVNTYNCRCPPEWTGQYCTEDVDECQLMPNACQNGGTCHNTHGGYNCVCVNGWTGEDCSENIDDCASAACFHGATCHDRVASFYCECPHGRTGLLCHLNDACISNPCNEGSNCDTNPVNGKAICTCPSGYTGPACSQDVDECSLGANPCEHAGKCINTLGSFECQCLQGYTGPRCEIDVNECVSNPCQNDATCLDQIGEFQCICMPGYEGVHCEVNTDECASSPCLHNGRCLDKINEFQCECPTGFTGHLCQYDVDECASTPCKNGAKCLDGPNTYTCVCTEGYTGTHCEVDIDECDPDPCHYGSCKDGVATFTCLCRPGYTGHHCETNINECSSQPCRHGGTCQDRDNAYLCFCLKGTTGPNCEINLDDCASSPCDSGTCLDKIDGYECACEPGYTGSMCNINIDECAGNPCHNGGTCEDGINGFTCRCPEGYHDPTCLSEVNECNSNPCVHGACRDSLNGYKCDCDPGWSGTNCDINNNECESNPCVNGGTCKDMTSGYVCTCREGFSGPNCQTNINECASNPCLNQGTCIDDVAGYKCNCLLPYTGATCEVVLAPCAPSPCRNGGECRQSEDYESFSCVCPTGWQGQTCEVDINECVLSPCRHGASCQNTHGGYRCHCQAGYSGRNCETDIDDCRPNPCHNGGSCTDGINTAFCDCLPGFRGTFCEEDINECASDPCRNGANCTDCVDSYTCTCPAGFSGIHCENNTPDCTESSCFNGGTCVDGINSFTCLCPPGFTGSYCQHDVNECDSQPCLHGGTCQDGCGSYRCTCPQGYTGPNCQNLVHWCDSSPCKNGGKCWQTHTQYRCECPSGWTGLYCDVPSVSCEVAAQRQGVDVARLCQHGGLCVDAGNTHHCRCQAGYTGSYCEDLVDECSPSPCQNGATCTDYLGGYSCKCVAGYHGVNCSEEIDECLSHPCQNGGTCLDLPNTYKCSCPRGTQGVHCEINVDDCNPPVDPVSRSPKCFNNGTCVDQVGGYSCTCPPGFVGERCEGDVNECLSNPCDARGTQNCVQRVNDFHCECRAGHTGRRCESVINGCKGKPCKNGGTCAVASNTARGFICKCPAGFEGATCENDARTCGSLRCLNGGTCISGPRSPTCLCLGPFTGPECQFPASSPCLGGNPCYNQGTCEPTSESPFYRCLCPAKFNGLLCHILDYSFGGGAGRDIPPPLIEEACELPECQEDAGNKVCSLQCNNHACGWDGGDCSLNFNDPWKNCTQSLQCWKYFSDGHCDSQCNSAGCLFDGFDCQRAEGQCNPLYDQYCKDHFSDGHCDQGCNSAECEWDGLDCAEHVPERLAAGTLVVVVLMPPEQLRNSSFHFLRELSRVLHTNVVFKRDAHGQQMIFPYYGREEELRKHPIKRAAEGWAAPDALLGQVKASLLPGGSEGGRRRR
Sequence of Notch1 (P46531 1665-1756 limits assumed): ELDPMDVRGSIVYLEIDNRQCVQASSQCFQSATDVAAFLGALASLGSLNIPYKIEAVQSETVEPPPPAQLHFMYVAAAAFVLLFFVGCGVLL

B1: Delta^MAX: engineered human DLL4 consensus variant with 10 mutations combining DLL4.v1 and DLL4.v2 mutations; sequence matches SEQ ID NO: 4/10 (protein)
chain: SSVFQLQLQEFINERGVLASGRPCEPGCRTFFRVCLKHFQAVVSPGPCTFGTVSTPVLGTNSFAVRDDSSGGGRNPLQLPLNFTWPGTFSLIIEAWHAPGDDLRPEALPPDALISKFAIQGSLAVGQNWLLDEQTSTLTRLRYSYRVICSDNYYGDNCSRLCKKRNDYFGHYVCQPDGNPSCLPGWTGEYCQQPICLSGCHEQNGYCSKPAECLCRPGWQGRLCNECIPHPGCRHGTCSTPWQCLCDEGWGGLYCDQDLNYCTHHSPCKNGATCRNSGPRSYTCTCRPGYTGVDCELELSECDSNPCRNGGSCKDQEDGYHCLCPPGYYGLHCEHSTLSCADSPCFNGGSCRERNQGANYACECPPNFTGSNCE
[1]; comparison with DAPT and BB-94, plates coated with 50 nM WT DLL4, FIG. 4B, read-out: IC50 for inhibition of Notch1 activation
  IC50: 1 nM
[1]; ratio of IC50
  potency relative to BB-94: 1,000 fold
  potency relative to DAPT: 40 fold
[1]; soluble ECD, plates coated with 50 nM WT DLL4, 24 hours, FIG. 4A, read-out: IC50 for inhibition of Notch1 signaling
  IC50: 0.6 nM
[2]; 1 μM soluble protein
  neuronal differentiation compared with 10 μM of DAPT: comparable to, if not superior to
[2]
  neural progenitor marker SOX2 expression: repressed
  neuronal markers (MAPT, SNAP25, DCX, VGLUT2, TBR1) expression: sharply increased

B2: WT DLL4: human wild-type Delta-like 4 (N-EGF5, residues 27-400), SEQ ID NO: 1 (protein)
chain: B1 chain with S2G, L81F, F117I, Y168H, P180L, P231N, L245T, Y254F, R275S, P279Q
[1]; soluble, highest concentration tested (300 nM)
  reduction of reporter activity: ~25%
[3]
  enhancement of the percentage of proliferating CD8+ T cells: did not show a significant improvement
[2]
  neural progenitor marker SOX2 expression: failed to upregulate neuronal markers or to repress neural progenitor markers
  neuronal markers (MAPT, SNAP25, DCX, VGLUT2, TBR1) expression: failed to upregulate neuronal markers
